The values below are quoted from earlier work in publication PMC3985900.

For one series, the target named is Asp85 (UniProt position 98, WARYADWLFTT). Description: UV-vis. As to conditions: Resting state, with retinal bound.
The target of a further series is Glu85 (UniProt position 98, WARYAEWLFTT). Nature of the series: UV-vis. As to conditions: Resting state, with retinal bound.

As for “Bacteriorhodopsin (native, purple membrane) (Halobacterium salinarum)”, in the series with Asp85, the pKa entry was “∼3”. “Bacteriorhodopsin D85E (Halobacterium salinarum; D85E)”: the pKa with Glu85 is 9.4.

The pKa is the pH at which an ionisable group is half protonated.
